B1: GLP1R221-084: GLP1R-221 variant, optimized from GLP1R-3 (antibody, V domains shown)
VH: QVQLVESGGGVVQPGRSLRLSCAASGFAFSNYGMHWVRQAPGKGLEWVAVISSDENNKYYADSVKGRFTISRDNSKNTLYLQMNSLRAEDTAVYYCAKHMSMQEGAVTGEMQAAKEFIAWLVKGRVRADLVGDAFDVWGQGTLVTVSS
VL: QSVLTQPPSVSAAPGQKVTISCSGSSSNIADNYVSWYQQLPGTAPKLLIYENNRRPSGIPDRFSGSKSGTSATLGITGLQTGDEADYYCGTWDVSLSVGMFGGGTKLTVL
B2: GLP1R221-034: GLP1R-221 variant, optimized from GLP1R-3 (antibody, V domains shown)
VH: QVQLVESGGGVVQPGRSLRLSCAASGFPFSNYGMHWVRQAPGKGLEWVAVISHDRSNKYYADSVKGRFTISRDNSKNTLYLQMNSLRAEDTAVYYCAKHMSMQEGAVTGEGQAVKEFIAWLVKGRVRADLVGDAFDVWGQGTLVTVSS
VL: QSVLTQPPSVSAAPGQKVTISCSGSSSNIGNNPVSWYQQLPGTAPKLLIYENDNRPSGIPDRFSGSKSGTSATLGITGLQTGDEADYYCATWDRGLSTGVFGGGTKLTVL
B3: GLP1R222-073: GLP1R-222 variant, optimized from GLP1R-3 (antibody, V domains shown)
VH: QVQLVESGGGVVQPGRSLRLSCAASGFTFRDYGMHWVRQAPGKGLEWVAFIRYDEINKYYADSVKGRFTISRDNSKNTLYLQMNSLRAEDTAVYYCAKHMSMQEGAVTGEGQAAKEFIAWLVGGRVRADLVGDAFDVWGQGTLVTVSS
VL: QSVLTQPPSVSAAPGQKVTISCSGSGSNIGNNDVSWYQQLPGTAPKLLIYDNNKRASGIPDRFSGSKSGTSATLGITGLQTGDEADYYCGTWDRGPNTGVFGGGTKLTVL
B4: GLP1R221-092: GLP1R-221 variant, optimized from GLP1R-3 (antibody, V domains shown)
VH: QVQLVESGGGVVQPGRSLRLSCAASGFIFNNYGMHWVRQAPGKGLEWVAFISYGGSNKYYADSVKGRFTISRDNSKNTLYLQMNSLRAEDTAVYYCAKHMSMQEGAVTGEGQAVKEFIAWLVKGRVRADLVGDAFDVWGQGTLVTVSS
VL: QSVLTQPPSVSAAPGQKVTISCSGTTSNIANNFVSWYQQLPGTAPKLLIYDNNKRPPGIPDRFSGSKSGTSATLGITGLQTGDEADYYCGTWDTSLSVGMFGGGTKLTVL
B5: GLP1R222-014: GLP1R-222 variant, optimized from GLP1R-3 (antibody, V domains shown)
VH: QVQLVESGGGVVQPGRSLRLSCAASGFAFSNYGMHWVRQAPGKGLEWVSFISYDESNKYYADSVKGRFTISRDNSKNTLYLQMNNLRAEDTAVYYCAKHMSMQEGAVTGEWQAAKEFIAWLVKGRVRADLVGDAFDVWGQGTLVTVSS
VL: QSVLTQPPSVSAAPGQKVTISCSGSSSNIGNHDVSWYQQLPGTAPKLLIYDNNKRHSGIPDRFSGSKSGTSATLGITGLQTGDEADYYCGTWDTSLSAGVFGGGTKLTVL
B6: GLP1R221-033: GLP1R-221 variant, optimized from GLP1R-3 (antibody, V domains shown)
VH: QVQLVESGGGVVQPGRSLRLSCAASGFSFSNYAMHWVRQAPGKGLEWVAVISHDRSNKYYADSVKGRFTISRDNSKNTLYLQMNSLRAEDTAVYYCAKHMSMQEGAVTGEGQAAKDFIAWLVKGRVRADLVGDAFDVWGQGTLVTVSS
VL: QSVLTQPPSVSAAPGQKVTISCSGSSSNIGNEYVSWYQQLPGTAPKLLIYDNNKRVSGIPDRFSGSKSGTSATLGITGLQTGDEADYYCATWDTSLNVGVFGGGTKLTVL
B7: GLP1R221-017: GLP1R-221 variant, optimized from GLP1R-3 (antibody, V domains shown)
VH: QVQLVESGGGVVQPGRSLRLSCAASGFTFSDYGVHWVRQAPGKGLEWVAFISYDESNKYYADSVKGRFTISRDNSKNTLYLQMNSLRAEDTAVYYCAKHMSMQEGAVTGEYQAAKEFIAWLVKGRVRADLVGDAFDVWGQGTLVTVSS
VL: QSVLTQPPSVSAAPGQKVTISCSGSSSNIGNTYVSWYQQLPGTAPKLLIYDDYKRPSGIPDRFSGSKSGTSATLGITGLQTGDEADYYCATWDATLNTGVFGGGTKLTVL
B8: GLP1R221-076: GLP1R-221 variant, optimized from GLP1R-3 (antibody, V domains shown)
VH: QVQLVESGGGVVQPGRSLRLSCAASGFTFNNYPMHWVRQAPGKGLEWVAVISYDETNKYYADSVKGRFTISRDNSKNTLYLQMNSLRAEDTAVYYCAKHMSMQEGAVTGEGQAAKEFIAWLVKGIVRADLVGDAFDVWGQGTLVTVSS
VL: QSVLTQPPSVSAAPGQKVTISCSGTSSNIGNNDVSWYQQLPGTAPKLLIYENNKRHSGIPDRFSGSKSGTSATLGITGLQTGDEADYYCLTWDHSLTAYVFGGGTKLTVL
B9: GLP1R221-009: GLP1R-221 variant, optimized from GLP1R-3 (antibody, V domains shown)
VH: QVQLVESGGGVVQPGRSLRLSCAASGFIFSNYGMHWVRQAPGKGLEWVAVISDEGSNKYYADSVKGRFTISRDNSKNTLYLQMNSLRAEDTAVYYCAKHMSMQEGAVTGAGQAAKEFIAWLVKGRVRADLVGDAFDVWGQGTLVTVSS
VL: QSVLTQPPSVSAAPGQKVTISCSGSSSNIGNQYVSWYQQLPGTAPKLLIYDDHKRPSGIPDRFSGSKSGTSATLGITGLQTGDEADYYCGTWDTSLSVGEFGGGTKLTVL
B10: GLP1R222-023: GLP1R-222 variant, optimized from GLP1R-3 (antibody, V domains shown)
VH: QVQLVESGGGVVQPGRSLRLSCAASGFSFSDYGMHWVRQAPGKGLEWVAFISYDANNKYYADSVKGRFTISRDNSKNTLYLQMNSLRAEDTAVYYCAKHMSMQEGAVTGEWQAAKEFIAWLVKGRVRADLVGDAFDVWGQGTLVTVSS
VL: QSVLTQPPSVSAAPGQKVTISCSGSSSNIGNNDVSWYQQLPGTAPKLLIYENTKRPSGIPDRFSGSKSGTSATLGITGLQTGDEADYYCGTWDAGLSTGVFGGGTKLTVL
B11: GLP1R222-056: GLP1R-222 variant, optimized from GLP1R-3 (antibody, V domains shown)
VH: QVQLVESGGGVVQPGRSLRLSCAASGFPFSSYAMHWVRQAPGKGLEWVAVISYDRSNKYYADSVKGRFTISRDNSKNTLYLQMNSLRAEDTAVYYCAKHMSMQEGAVTGYGQAAKEFIAWLVKGFVRADLVGDAFDVWGQGTLVTVSS
VL: QSVLTQPPSVSAAPGQKVTISCSGSSSNIGSNYISWYQQLPGTAPKLLIYDNDKRPAGIPDRFSGSKSGTSATLGITGLQTGDEADYYCGTWDTSLSVGEFGGGTKLTVL
B12: GLP1R221-066: GLP1R-221 variant, optimized from GLP1R-3 (antibody, V domains shown)
VH: QVQLVESGGGVVQPGRSLRLSCAASGFTFNNYAMHWVRQAPGKGLEWVAVISYDRSNEYYADSVKGRFTISRDNSKNTLYLQMNSLRAEDTAVYYCAKHMSMQEGAVTGEGQAIKEFIAWLVKGRVRADLVGDAFDVWGQGTLVTVSS
VL: QSVLTQPPSVSAAPGQKVTISCSGSSSNIGNNYLSWYQQLPGTAPKLLIYENNKRPSGIPDRFSGSKSGTSATLGITGLQTGDEADYYCGIWDRSLSAWVFGGGTKLTVL
B13: GLP1R221-065: GLP1R-221 variant, optimized from GLP1R-3 (antibody, V domains shown)
VH: QVQLVESGGGVVQPGRSLRLSCAASGFTFNNYAMHWVRQAPGKGLEWVAVISYDRSNEYYADSVKGRFTISRDNSKNTLYLQMNSLRAEDTAVYYCAKHMSMQEGAVTGDGQAAKEFIAWLVKGRVRADLVGDAFDVWGQGTLVTVSS
VL: QSVLTQPPSVSAAPGQKVTISCSGTTSNIANNFVSWYQQLPGTAPKLLIYDHNKRPSGIPDRFSGSKSGTSATLGITGLQTGDEADYYCGTWDTSLSAGAFGGGTKLTVL
B14: GLP1R222-081: GLP1R-222 variant, optimized from GLP1R-3 (antibody, V domains shown)
VH: QVQLVESGGGVVQPGRSLRLSCAASGFTFDNYALHWVRQAPGKGLEWVALISYDAGNKYYADSVKGRFTISRDNSKNTLYLQMNSLRAEDTAVYYCAKHMSMQEGAVTGEGQAAKEFIAWLVKGFVRADLVGDAFDVWGQGTLVTVSS
VL: QSVLTQPPSVSAAPGQKVTISCSGSSSNIGSDYVSWYQQLPGTAPKLLIYDNNKRSSGIPDRFSGSKSGTSATLGITGLQTGDEADYYCGTWDESLRSWVFGGGTKLTVL
B15: GLP1R221-075: GLP1R-221 variant, optimized from GLP1R-3 (antibody, V domains shown)
VH: QVQLVESGGGVVQPGRSLRLSCAASGFTFSNYPMHWVRQAPGKGLEWVAVISYDETNKYYADSVKGRFTISRDNSKNTLYLQMNSLRAEDTAVYYCAKHMSMQEGAVTGEGQAAKEFIAWLVKGIVRADLVGDAFDVWGQGTLVTVSS
VL: QSVLTQPPSVSAAPGQKVTISCSGSGSNIGNNDVSWYQQLPGTAPKLLIYDNDKRPAGIPDRFSGSKSGTSATLGITGLQTGDEADYYCGTWDTSLSNYVFGGGTKLTVL

Test system: CHO-parent cells
Assay: Flow cytometry binding assay on CHO-parent cells (background binding)
Parameters: species or system Chinese Hamster
Procedure: GLP-1R IgG clones were tested in a binding assay coupled to flow cytometry analysis as follows: FLAG-GLP-1R-GFP expressing CHO cells (CHO-GLP-1R) and CHO-parent cells were incubated with 100 nM IgG for 1 h on ice, washed three times and incubated with Alexa 647 conjugated goat-anti-human antibody (1:200) (Jackson ImmunoResearch Laboratories, 109-605-044) for 30 min on ice, followed by three washes, centrifuging to pellet the cells between each washing step. All incubations and washes were in buffer containing PBS+1% BSA. For titrations, IgG was serially diluted 1:3 starting from 100 nM down to 0.046 nM. Cells were analyzed by flow cytometry and hits (a hit is an IgG that specifically binds to CHO-GLP-1R) were identified by measuring the GFP signal against the Alexa 647 signal. Flow cytometry data of binding assays with 100 nM IgG are presented as dot plots. Analyses of binding assays with IgG titrations are presented as binding curves plotting IgG concentrations against MFI (mean fluorescence intensity).

Row | Molecule | Median RL1-H of Parent Singlets (Table 6C, GLP1R-221 variants) | Bmax CHO Parent (Table 6E, IgG titration) | Median RL1-H of Parent Singlets (Table 6D, GLP1R-222 variants) | Bmax CHO Parent (Table 6F, IgG titration) | EC50 (Table 6F, IgG titration) [nM]
1 | B1 | 207 | 266.6 |  |  | 
2 | B2 | 314 | 279.8 |  |  | 
3 | B3 |  |  | 229 | 228.4 | 
4 | B4 | 326 | 291.2 |  |  | 
5 | B5 |  |  | 299 | 336.4 | 
6 | B6 | 236 | 146 |  |  | 
7 | B7 | 162 | 228.7 |  |  | 
8 | B8 | 316 | 183.2 |  |  | 
9 | B9 | 197 | 267.4 |  |  | 
10 | B10 |  |  | 310 | 237.9 | 89.4
11 | B11 |  |  | 230 | 237.5 | 
12 | B12 | 240 | 112.1 |  |  | 
13 | B13 | 298 | 261.9 |  |  | 
14 | B14 |  |  | 260 | 243.4 | 
15 | B15 | 206 | 234 |  |  | 

From patent US12391762B2, “Methods and compositions relating to GLP1R variants” (Twist Bioscience Corporation, priority 2020, dated 2025)
